pKd: −log10 of the molar value.
Legend:
[1] = target: Rhesus-monkey IgG (Rhesus-monkey serum); assay: SPR (BIAcore T100), mAb captured by anti-mouse Fc, serum 1:100; signal at 80 s
[2] = target: baboon IgG (baboon serum); assay: as above
[3] = target: chimpanzee immunoglobulin of class G (chimpanzee serum); assay: as above
[4] = target: cynomolgus IgG (cynomolgus serum); assay: as above
[5] = target: dog IgG (dog serum); assay: as above
[6] = target: human immunoglobulin of class G (human serum); assay: as above
[7] = target: marmoset IgG (marmoset serum); assay: as above
[8] = target: antibody against the IL-1R receptor (anti-IL1R antibody); assay: sandwich ELISA, Bi- and Dig-M-R10Z8E9 as capture and detection; analyte 1.56 ng/ml in cynomolgus serum
[9] = target: antibody against the IL-6 receptor (anti-IL6R antibody); assay: as above
[10] = target: antibody against the IL13 receptor α1 protein (anti-IL13Rα1 antibody); assay: as above
[11] = target: antibody against the amyloid β-A4 peptide (anti-Aβ antibody); assay: as above
[12] = target: antibody against the IL-1R receptor (anti-IL1R antibody); assay: sandwich ELISA, Bi- and Dig-M-R10Z8E9 as capture and detection; analyte 3.13 ng/ml in cynomolgus serum
[13] = target: antibody against the IL-6 receptor (anti-IL6R antibody); assay: as above
[14] = target: antibody against the IL13 receptor α1 protein (anti-IL13Rα1 antibody); assay: as above
[15] = target: antibody against the amyloid β-A4 peptide (anti-Aβ antibody); assay: as above
[16] = target: antibody against the IL-1R receptor (anti-IL1R antibody); assay: sandwich ELISA, Bi- and Dig-M-R10Z8E9 as capture and detection; analyte 6.25 ng/ml in cynomolgus serum
[17] = target: antibody against the IL-6 receptor (anti-IL6R antibody); assay: as above
[18] = target: antibody against the IL13 receptor α1 protein (anti-IL13Rα1 antibody); assay: as above
[19] = target: antibody against the amyloid β-A4 peptide (anti-Aβ antibody); assay: as above
[20] = target: antibody against the IL-1R receptor (anti-IL1R antibody); assay: sandwich ELISA, Bi- and Dig-M-R10Z8E9 as capture and detection; analyte 12.50 ng/ml in cynomolgus serum
[21] = target: antibody against the IL-6 receptor (anti-IL6R antibody); assay: as above
[22] = target: antibody against the IL13 receptor α1 protein (anti-IL13Rα1 antibody); assay: as above
[23] = target: antibody against the amyloid β-A4 peptide (anti-Aβ antibody); assay: as above
[24] = target: antibody against the IL-1R receptor (anti-IL1R antibody); assay: sandwich ELISA, Bi- and Dig-M-R10Z8E9 as capture and detection; analyte 25.00 ng/ml in cynomolgus serum
[25] = target: antibody against the IL-6 receptor (anti-IL6R antibody); assay: as above
[26] = target: antibody against the IL13 receptor α1 protein (anti-IL13Rα1 antibody); assay: as above
[27] = target: antibody against the amyloid β-A4 peptide (anti-Aβ antibody); assay: as above
[28] = target: antibody against the IL-1R receptor (anti-IL1R antibody); assay: sandwich ELISA, Bi- and Dig-M-R10Z8E9 as capture and detection; analyte 50.00 ng/ml in cynomolgus serum
[29] = target: antibody against the IL-6 receptor (anti-IL6R antibody); assay: as above
[30] = target: antibody against the IL13 receptor α1 protein (anti-IL13Rα1 antibody); assay: as above
[31] = target: antibody against the amyloid β-A4 peptide (anti-Aβ antibody); assay: as above
[32] = target: chimpanzee immunoglobulin of class G (chimpanzee serum); assay: SPR (BIAcore T100), mAb captured by anti-mouse Fc, serum 1:100; 1:1 Langmuir, serum IgG assumed 15 mg/ml
[33] = target: dog IgG (dog serum); assay: as above
[34] = target: human immunoglobulin of class G (human serum); assay: as above
[35] = target: marmoset IgG (marmoset serum); assay: as above
[36] = target: antibody against the IL-1R receptor (anti-IL1R antibody); assay: sandwich ELISA, Bi- and Dig-M-R10Z8E9 as capture and detection; analyte 100.00 ng/ml in cynomolgus serum
[37] = target: antibody against the IL-6 receptor (anti-IL6R antibody); assay: as above
[38] = target: antibody against the IL13 receptor α1 protein (anti-IL13Rα1 antibody); assay: as above
[39] = target: antibody against the amyloid β-A4 peptide (anti-Aβ antibody); assay: as above
[40] = target: antibody against the IL-1R receptor (anti-IL1R antibody); assay: sandwich ELISA, Bi- and Dig-M-R10Z8E9 as capture and detection; 0.00 ng/ml analyte in cynomolgus serum (blank)
[41] = target: antibody against the IL-6 receptor (anti-IL6R antibody); assay: as above
[42] = target: antibody against the IL13 receptor α1 protein (anti-IL13Rα1 antibody); assay: as above
[43] = target: antibody against the amyloid β-A4 peptide (anti-Aβ antibody); assay: as above

MAB<h-Fc gamma>M-R10Z8E9 (antibody)
Bound RU [1]: -1.9 RU
Bound RU [2]: -1.5 RU
Bound RU [3]: 159 RU
Bound RU [4]: -1.4 RU
Bound RU [5]: 35.5 RU
Bound RU [6]: 151 RU
Bound RU [7]: 18.9 RU
OD [8]: 0.085 OD
OD [9]: 0.105 OD
OD [10]: 0.119 OD
OD [11]: 0.139 OD
OD [12]: 0.153 OD
OD [13]: 0.19 OD
OD [14]: 0.226 OD
OD [15]: 0.264 OD
OD [16]: 0.276 OD
OD [17]: 0.348 OD
OD [18]: 0.408 OD
OD [19]: 0.482 OD
OD [20]: 0.546 OD
OD [21]: 0.664 OD
OD [22]: 0.772 OD
OD [23]: 0.881 OD
OD [24]: 0.98 OD
OD [25]: 1.08 OD
OD [26]: 1.23 OD
OD [27]: 1.31 OD
OD [28]: 1.52 OD
OD [29]: 1.56 OD
OD [30]: 1.67 OD
OD [31]: 1.71 OD
pKd [32]: 9.66
pKd [33]: 7.50
pKd [34]: 9.75
pKd [35]: 6.69
OD [36]: 1.88 OD
OD [37]: 1.82 OD
OD [38]: 1.97 OD
OD [39]: 1.93 OD
OD [40]: 0.024 OD
OD [41]: 0.024 OD
OD [42]: 0.022 OD
OD [43]: 0.023 OD
